Test in all cases: cell-based or functional assay
The target in assay [1] is HA of influenza virus A/EW/MPF461/07 (H5) (Influenza A virus A/Eurasian Wigeon/MPF461/07 (H5)).
Assay [2] deals with HA of influenza virus A/WF/MPA 892/06 (H4) (Influenza A virus A/WF/HK/MPA892/06 (H4)).
The target of assay [3] is HA of influenza virus A/Brisbane/59/2007 (H1) (Influenza A virus A/Brisbane/59/2007 (H1)).
The target in assay [4] is HA of influenza virus A/Johannesburg/33/94 (H3) (Influenza A virus A/Johannesburg/33/94 (H3)).
Assay [5] concerns the target HA of influenza virus A/Hiroshima/52/2005 (H3) (Influenza A virus A/Hiroshima/52/2005 (H3)).
In assay [6] the target is HA of influenza virus A/EW/MPH571/08 (H8) (Influenza A virus A/Eurasian Wigeon/MPH571/08 (H8)).
Assay [7] has as its target HA of influenza virus A/Hong Kong/1/68 (H3) (Influenza A virus A/Hong Kong/1/68 (H3)) (UniProt Q91MA7).
In assay [8] the target is HA of influenza virus A/Ck/HK/SSP176/09 (H9) (Influenza A virus A/Chick/HK/SSP176/09 (H9)).
Assay [9] has as its target HA of influenza virus A/EW/MPD411/07 (H6) (Influenza A virus A/Eurasian Wigeon/MPD411/07 (H6)).
In assay [10] the target is HA of influenza virus A/Env/MPU3156/05 (H2) (Influenza A virus A/Env/MPU3156/05 (H2)).
The target of assay [11] is HA of influenza virus A/Hong Kong/1073/99 (H9) (Influenza A virus A/Hong Kong/1073/99 (H9)).
The target of assay [12] is HA of influenza virus A/Chick/Germany/N/49 (H10) (Influenza A virus A/Chick/Germany/N/49 (H10)) (UniProt P12581).
The target in assay [13] is HA of influenza virus A/Panama/2007/1999 (H3) (Influenza A virus A/Panama/2007/1999 (H3)).
In assay [14] the target is HA of influenza virus A/Brisbane/10/2007 (H3) (Influenza A virus A/Brisbane/10/2007 (H3)).

In US20140120113A1 one finds geomean IC50, virus neutralization assay (VNA) data, which are given here for 1 substance.

UniProt P12581, sequence (P12581 17-561 limits assumed): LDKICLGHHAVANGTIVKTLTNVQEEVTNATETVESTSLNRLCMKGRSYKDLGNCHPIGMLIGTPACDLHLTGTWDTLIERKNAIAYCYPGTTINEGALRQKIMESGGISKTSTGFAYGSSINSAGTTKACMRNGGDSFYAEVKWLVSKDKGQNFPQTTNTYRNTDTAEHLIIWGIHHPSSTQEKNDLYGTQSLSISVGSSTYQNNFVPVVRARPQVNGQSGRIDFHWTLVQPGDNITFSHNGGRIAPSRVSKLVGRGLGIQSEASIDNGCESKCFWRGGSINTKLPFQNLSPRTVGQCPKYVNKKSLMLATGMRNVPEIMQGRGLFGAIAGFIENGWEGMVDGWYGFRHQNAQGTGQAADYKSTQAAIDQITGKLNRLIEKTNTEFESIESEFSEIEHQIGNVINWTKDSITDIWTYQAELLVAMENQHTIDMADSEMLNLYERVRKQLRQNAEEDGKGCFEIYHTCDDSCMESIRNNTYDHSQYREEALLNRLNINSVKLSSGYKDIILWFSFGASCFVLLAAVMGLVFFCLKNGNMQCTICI

CR9114 (antibody): the geomean IC50, virus neutralization assay (VNA) in assay [1] is 10.5 µg/mL; in assay [2] it was 0.8 µg/mL; in [3] it was 2.6 µg/mL; in [4], 21.9 µg/mL; in assay [5], 12.5 µg/mL; in assay [6] it was 8.8 µg/mL. For the same substance, the geomean IC50, virus neutralization assay (VNA) in [7] was 19 µg/mL; in assay [8], 6.3 µg/mL; in [9] it was 10.5 µg/mL; in [10], 8.8 µg/mL; in [11], 4.4 µg/mL; in assay [12] it was 15.7 µg/mL. Further, the geomean IC50, virus neutralization assay (VNA) in assay [13] was 39.9 µg/mL; in assay [14], 5.6 µg/mL.
